For one test, the target named is T1, Cyno PD-1.
T1 chain: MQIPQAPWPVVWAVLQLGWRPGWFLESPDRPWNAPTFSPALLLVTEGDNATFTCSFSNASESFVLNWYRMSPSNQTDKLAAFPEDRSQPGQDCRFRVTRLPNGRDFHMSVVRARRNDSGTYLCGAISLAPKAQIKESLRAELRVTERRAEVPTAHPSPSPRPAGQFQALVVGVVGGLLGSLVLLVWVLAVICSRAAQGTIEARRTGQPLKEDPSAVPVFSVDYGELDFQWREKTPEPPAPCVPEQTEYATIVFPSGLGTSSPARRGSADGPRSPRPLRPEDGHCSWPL
In words: Octet.

The next test has as its target human PD-1-His (human, UniProt Q15116 25-167). In words: Octet. Background: BLI is a label-free optical method that tracks binding on a fibre tip over time.

Chain of human PD-1-His (Q15116 25-167): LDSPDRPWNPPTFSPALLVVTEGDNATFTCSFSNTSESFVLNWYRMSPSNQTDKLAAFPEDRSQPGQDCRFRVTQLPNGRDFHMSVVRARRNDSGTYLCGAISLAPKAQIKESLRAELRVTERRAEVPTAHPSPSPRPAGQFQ

B1: XENP28536 (bivalent mAb based on humanized mAb C, mAb C[PD-1]_H1L1) (antibody, V domains shown)
VH: EVQLVESGGGLVQPGGSLRLSCAASGFTFSSFGMHWVRQAPGKGLEWVSYISSGSSIIYYADSVKGRFTISRDNAKNSLYLQMNSLRAEDTAVYYCARGGRLVWSPDYWGQGTLVTVSS
VL: DIVMTQSPDSLAVSLGERATINCKSSQSLLNSGNQKNYLTWYQQKPGQPPKLLIYWASTRESGVPDRFTGSGSGTDFTLTISSLQAEDVAVYYCQNDYSYPFTFGSGTKLEIK
Regarding B1, the Kd (usually a measure of binding affinity in units of concentration) with Cyno PD-1 turned out to be 35.8 nM; with human PD-1-His it was 24 nM.

B2: XENP28537 (humanized variant of anti-PD-1 mAb C, bivalent human IgG1) (antibody, V domains shown)
VH: B1 VH
VL: DIVMTQSPLSLPVTPGEPASISCRSSQSLLNSGNQKNYLTWYLQKPGQPPQLLIYWASTRESGVPDRFTGSGSGTDFTLKISRVEAEDVGVYYCQNDYSYPFTFGSGTKLEIKR
Take B2: in the test with Cyno PD-1, the Kd is 42 nM.

B3: XENP28519 (bivalent mAb based on humanized mAb A) (antibody, V domains shown)
VH: QVQLQESGPGLVKPSQTLSLTCTVSGHSITSDYAWNWIRQPPGKKLEWIGYISYSGYTTYNPSLKSRVTISRDTSKNQFSLKLSSVTAADTAVYFCARDLDYGPWFAYWGQGTLVTVSS
VL: DIQMTQSPSSLSASVGDRVTITCRASENIHNYLAWYQQKPGKSPKLLVYNVKTLADGVPSRFSGSGSGTDYTLTISSLQPEDFATYYCQHFWSSPWTFGGGTKVEIKR
Molecule B3 returned a Kd with human PD-1-His of 11.9 nM.

The values are drawn from patent US20200140512A1 (published 2020).
